Our source for the stoichiometry N values is publication PMC5244374.

This assay deals with homotarsinin (Htr), cystine-linked homodimer (Phyllomedusa tarsius). In words: SEC; 2 mg/mL peptide, Superdex Peptide 10/300 GL, 20 mM phosphate pH 7.0, 0.3 M NaCl, room temperature, 0.3 mL/min; homotarsinin and distinctin compared by retention time. For orientation: Size exclusion chromatography separates by hydrodynamic size, large species first.

By stoichiometry N is commonly meant the number of molecules, sites or subunits per partner or assembly. In turn, “homotarsinin (Htr), cystine-linked homodimer (peptide)” registered a stoichiometry N of 2.
